Here are results for 1 molecule from article PMC11128199 (JCI Insight, 2024).

For this experiment, the target named is T1, stabilized SARS-CoV-2 Omicron S ECD HexaPro (SARS-CoV-2 Omicron BA.1, stabilised).
T1 construct: also called prefusion Omicron BA.1 S trimer; BA.1 S
Put plainly: cryo-EM structure. Particulars: both partners purified.

B1: 58G6 Fab (Fab, V domains shown)
VH: QMQLVQSGPEVKKPGTSVKVSCKASGFTFSSSAVQWVRQARGQHLEWIGWIVVGSGNTNYAQKFQERVTLTRDMSTRTAYMELSSLRSEDTAVYYCAAPNCNSTTCHDGFDIWGQGTVVTVSS
VL: EIVLTQSPGTLSLSPGERATLSCRASQSVRSSYLGWYQQKPGQAPRLLIYGASSRATGIPDRFSGSGSGTDFTLTISRLESEDFAVYYCQQYDNSPWTFGQGTKVEIK
By stoichiometry N is commonly meant the number of molecules, sites or subunits per partner or assembly. For B1, the “stoichiometry N” value is 1 Fabs per S trimer.
